Drawing on paper PMC10946715, this text covers stoichiometry N for one substance.

In the experiment the target is Cyc15 (Streptomyces sp. NL15-2 K). Briefly: crystal structure; X-ray crystal structure of Cyc15 at 1.7 Å, molecular replacement with an AlphaFold 2.0 search model; asymmetric unit with two molecules (Chain A and Chain B).

Substance Cyc15 (enzyme) had a stoichiometry N of 2.

The stoichiometry N is a count of units in the complex or per binding partner.
